Results from US20080241867.

Target: hybrid GFP construct containing the protease cleavage sequence SVPSGCG (SEQ ID NO:21) followed by histidine residues

B1: Proteinase K (protein)
chain: AAQTNAPWGLARISSTSPGTSTYYYDESAGQGSCVYVIDTGIEASHPEFEGRAQMVKTYYYSSRDGNGHGTHCAGTVGSRTYGVAKKTQLFGVKVLDDNGSGQYSTIIAGMDFVASDKNNRNCPKGVVASLSLGGGYSSSVNSAAARLQSSGVMVAVAAGNNNADARNYSPASEPSVCTVGASDRYDRRSSFSNYGSVLDIFGPGTSILSTWIGGSTRSISGTSMATPHVAGLAAYLMTLGKTTAASACRYIADTANKGDLSNIPFGTVNLLAYNNYQA
Micrograms of GFP Released by Protease (overnight, IMAC beads): 94 µg

B2: Purified Bromelain (protein)
chain: AVPQSIDWRDYGAVTSVKNQNPCGACWAFAAIATVESIYKIKKGILEPLSEQQVLDCAKGYGCKGGWEFRAFEFIISNKGVASGAIYPYKAAKGTCKTDGVPNSAYITGYARVPRNNESSMMYAVSKQPITVAVDANANFQYYKSGVFNGPCGTSLNHAVTAIGYGQDSIIYPKKWGAKWGEAGYIRMARDVSSSSGICGIAIDPLYPTLEE
% GFP Released (60 minutes, 37° C.): 98% | Micrograms of GFP Released by Protease (overnight, IMAC beads): 35 µg | averaged GFP signal (instrument signal times dilution factor, four readings): bromelain yielded a averaged (over four readings) GFP signal of 281,500 | fluorescence units of eluant diluted 20-fold: fluorescence units of 400, 400, and 390, respectively | µg GFP Released by Protease (60 minutes, 37° C.): 109 µg

B3: Papain (protein)
chain: IPEYVDWRQKGAVTPVKNQGSCGSCWAFSAVVTIEGIIKIRTGNLNEYSEQELLDCDRRSYGCNGGYPWSALQLVAQYGIHYRNTYPYEGVQRYCRSREKGPYAAKTDGVRQVQPYNEGALLYSIANQPVSVVLEAAGKDFQLYRGGIFVGPCGNKVDHAVAAVGYGPNYILIKNSWGTGWGENGYIRIKRGTGNSYGVCGLYTSSFYPVKN
% GFP Released (60 minutes, 37° C.): 97% | Micrograms of GFP Released by Protease (overnight, IMAC beads): 244 µg | averaged GFP signal (instrument signal times dilution factor, four readings): papain yielded an averaged (over four readings) GFP signal of 282,000 | fluorescence units of eluant diluted 20-fold: fluorescence units of 400, 400, and 390, respectively | µg GFP Released by Protease (60 minutes, 37° C.): 109 µg
